# The nanobody polyreactivity screen of Harvey et al. (2022)
# Experiment: yeast display, Sf9 membrane polyspecificity reagent, FACS + sequencing; frameworks hold sequencing errors
# Summary of the method: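 Galactose-induced (36–48 hours) yeast carrying a synthetic nanobody display library were exposed to 10% biotinylated, detergent-solubilized Sf9 membrane reagent at 4 °C for 1 hour. FACS followed streptavidin microbead enrichment, using low and high (top ~1%) gates for expression (anti-HA) and reagent binding (streptavidin). Colony PCR, MiSeq 2 × 250 sequencing and CDR-length filtering followed. Labels for polyreactivity reflect the gate of origin.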
row,Sequence,polyreactivity (PSR sort gate)
1,QDQLVESGGGLVQAGGSLRLSCAASGIIFSIYAMGWYRQAPGKERELVAVISRSSGSTYYADSVKGRFTISRDNAKNSVYLQMNSLKPEDTAVYYCAARKNRAYGYWGQGTQVTVSS,high polyreactivity
2,QVQLVESGGGLVQAGGSLRLSCAASGFTFKGYAMGWYRQAPGKERELVAGITSGGRTYYADSVKGRFTISRDNAKNTVYLQMNSLKPEDTAVYYCAAVHYVAYYGYDYWGQGSQVTVSS,high polyreactivity
3,QVQLVESGGGLVQAGGSLRLSCAASGSTFTSYAMGWYRQAPGKERELVAAISWRGGSTYYADSVKGRFTISRDNAKNTVYLQMNSLKPEDTAVYYCNAVVRQPHDLDYWGQGTQVTVSS,high polyreactivity
4,QVQLVESGGGLVQAGGSLRLSCAASGSTFRTYVMGWYRQAPGKERELVAAITRSGVSTSYADSVKGRFTISRDNAKNTVYLQMNSLKPEDTAVYYCAATKYDDGYSWTHYYYWGQGTQVTVSS,high polyreactivity
5,QVQLVESGGGLVQAGGSLRLSCAASGSTFRSNAMGWYRQAPGKERELVAAISSRVGTTYYADSVKGRFTISRDNAKNTVYLQMNSLKPEDTAVYYCAAQGWRYYRTVVPMDYWGQGTQVTVSS,low polyreactivity
6,QVQLVESGGGLVQAGGRLRLSCAASGSTFRLYAMGRYRQAPGKERELVAAIRGSGGSTYYADSVKGRFTISRDNAKNTVYLQMNSMKPEDNAVYYCAARVVVARRSYVGYGYWGQGTQVTVSS,high polyreactivity
7,QVQIVESGGGLVQAGGSLRLSCAASGIFYAMGWYRQAPWTKRELDDAISSVGSTNYADSVKGRFSISRDNAKNTVYLQMNSLKPEDTAVYYCAAYFYTYPVDRYGSYYWGQVTQVTVSS,low polyreactivity
8,QVQLVESGGGLVQAGGSLRLSCAPSRSTFWRYAMGWYRQAPGKERELFARISWSAGSTYYADSVKGRFTISRDNAKNTVYLQMNRLKPEDSAVYYCAAQPYKYSGRYQSKPYLLLYDYWGQGTQVTVSS,high polyreactivity
9,QVQLVESGGGLVQAGGSLRLSCAASGNIFAPNAMGWDRQAPGKERELVAAISRSGGSTHYADSVKGRFTISRDNAKNTVYLQMNSLKPEDTAVYYCAAGWYGRYTSKMGYWGQGTQVTVSS,high polyreactivity
10,QVQLEESGGGLVQAGGSLRLSCAASGGTLRYYVMGSYRQAPGKERELVAAISWSGDSTYYADSVKGRFTISRDNAKNTVYLQMNSLKPEDTAVYYCAATYYLTYYYGQANHGYDYWGQGTQVTVSS,low polyreactivity
11,QVQLVESGGGLVQAGGSLRLSCAASGSTFRGYAMGWYRQAPGKERELVAAISRSGGSTYYADSVKGRFTSSRDNAKNTVYLQMNSLKPEDTGVYYCAKRTSGYYWQWFDYCGQGTQVTVSS,high polyreactivity
12,QEQLQERAAWCRRAGSLRLSCAASGNISDYYFMGWYRQAPGKERELVAAIAPGSNTYYADSVKGRFTISRDNAKNTVYLQMNSLKPEDTAVCFCAANSTQYTWFDYWGQGTQVPVSS,low polyreactivity
13,QVQLEESGGGLVQAGGSLRLSCAASGIFTRYAMGWYRQAPGKERELVAAISRGGGSTYYADTVKGRFTISRDNAKNTVYLLMNSLKPEDTAVYYCYTYKRPRSPGPKFYYWGQGTQVTVSS,high polyreactivity
14,QVQLVESGGGLVQAGGSLRLSCAASGSTSAPNAMGWYRQAPGKERELVAAISWTGGSTSYADSVKGRFTISRDNAKNTVYLQMNSLKPPDTAVYYCAKRSYGLTRAYSAGNYWGQGTQVTVSS,low polyreactivity
15,QVQLVESGGGLVQAGGSLRLSCAASGRTFSRYAMGCYRQAPGKERELVAVITSSGASTYYADSVKGRFTISRDNAKNTVYLQMNSLKPEDTAVYYCAADRYYRGRRMNYWRQGTQVTVSS,high polyreactivity
16,QVQHVESGVGLVQAGGSLRLSSAASGRTFSDNAMGWYRQAPGNERELVAAISRSGGRTYYADSVKGRFTISRDNAKNTVYLQMNSLKPEDTAVYYCAAAPSVSGTRLYEYWGQGTQVTVSS,high polyreactivity
17,QDQLVESGGGLVQAGGSLRLSCAASGITIWRYAMGWYRQAPGKERELVAAISWSGSRTYYADSVKGRFTISRDNAKNTVYLQMNSLKPEDTAVYYCAAAFDLWITITGFDYWGQGTQVTVSS,low polyreactivity
18,QVQLVESGGGLVQAGGSLRLSCAASGSTFEYYAMGWYRQAPGKERELVAAITTSGGITYYADSVKGRFTISRDNAKNTVYLQMNSLKPEDTAVYYCNADAVPLPTLVTYLYDYWGQGTQVTVSS,low polyreactivity
19,QVQLVESGGGLVQAGGSLRLSCAASGSIFGYYAMGWSRQAPGKERELVASISSTGSTYYADSVKGRFTISRDNAKNTVSLQMNSLKPEDTAVYYCAADTLIFPWGFESWGQGTQVTVSS,high polyreactivity
20,HVQLVESGGRLVQAGGSLRLSSAASGLNFYYYAIGWSRQAPGKERELVAAISRRGGSTYYADSVKGRFTISRDNAKNTVYLQMNSLKPEVTEVYYCAAKSGSFVHGGYQTPVYGSDYWGQGTQVTVSS,high polyreactivity
21,QVQLVESGGGIVQAGGSLRLSCAASGRTFKVNAMGWYIQAPGKEREFVAAITWNSGSSTYYADSVKGRFTISRDNAKNTVYLQMNSLKPEDTAVYYCAARSAGRYWNYYWGQGTQVTVSS,high polyreactivity
22,QVQLVESGGGLVQAGGSLRLSCASSGNIFDRYAMGRYRPAPGKERELVAGITWSGGSTNYADSVKGRFTISRDNAKNTVYLQMNSLKPEDTAVYYCGQANYYWGQGSQVTVSS,low polyreactivity
23,QVQLVESGGGLVQAGGSLRLSCAASGSIFPYYTMGWYRQAPGKERELVAAINYSGASTYYADSVKGRFTISRDNAKNTVYLQMNSLKPEDTAVYYCAADYPPLYRKYVYWGQGTQVTVSS,low polyreactivity
24,QVQLVESGGGLVQAGGSLRLSCAASGRIFAYNAMGWYRQAPGKERELVAAITWSGSTYYADSVKGRFTISRDNAKNTVYLQMNSLKPEDTAVYYCNAQYRGYWNRGYDYWGQGTQVTVSS,high polyreactivity
25,QVQLVESGGGLVQAGGSLRLSCAASGSTFPGNARGWSRQAPGKLRELVAAIRWSGGRTYYADSVKGRFTISRDNAKNTVYLQMNSLNPEDTAVSYCNAVSDRPIPWYYYWGQGTQVTASS,low polyreactivity
26,QVQLVESGGGLVQAGGSLRLSCAASGITVLKYVMGWYRQAPGKEREFVAAITARGGTTYYADSVKGRFTISRDNAKNTVYLQMNSLKQEDTAVYYCAARSYYSGLAYYYWGQGTQVTVSS,high polyreactivity
27,QVQLVESGGGLVQAGGSLRLSCAPSGSTFPRNAMGWYRQAPGKERELVAAISYSGGRTYYADSVKGRFTISRDNAKNTVSLQMNSLKPEDTAVYYCAAQPWFTYYYWGQGTQVTVSS,high polyreactivity
28,QVQLVESGGGLVQAGGSHRLSCAASGRTFSPYVMGWSREAPGKEREYVARITWSGGSTYYADSVKGRFTISRDNAMYTVYLQMNSLKPEDTAVYYCNARGVFYVYKHDYWGQGTQVTVSS,high polyreactivity
29,QVQLVESGGGLVQAGGSLRLSCAASGSIFEPNDMGWYRQAPGKEREFVAAISGSGGSTYYADSVKGRFTISRDNAKNTVYLQINSLKPEDTAVYYCANRGKRSYFRTFYYWGHGTQVTVSS,high polyreactivity
30,QVQIVESGGGLVQAGGSLRLSCAASGFTFRGYAMGCYRQAPAKERELVAAISRSGGSTNYADSVKGRFTISRDNAKNTVYLKMNSMKPEDTAVYYCAAGWNPYDYWGQGTQVTVSS,high polyreactivity
